Key:
bovine thrombin (bovine) [1] = target: bovine thrombin (bovine) (UniProt P00735); conditions: scale: relative activity
DIP-thrombin agarose = assay: chromatography on DIP-thrombin agarose
bovine thrombin (bovine) [2] = target: bovine thrombin (bovine) (UniProt P00735)
human fibrinogen (human) = human fibrinogen (human) (UniProt P02671)

Chain of recombinant human urine thrombomodulin ruTM-Ala (receptor) (chain): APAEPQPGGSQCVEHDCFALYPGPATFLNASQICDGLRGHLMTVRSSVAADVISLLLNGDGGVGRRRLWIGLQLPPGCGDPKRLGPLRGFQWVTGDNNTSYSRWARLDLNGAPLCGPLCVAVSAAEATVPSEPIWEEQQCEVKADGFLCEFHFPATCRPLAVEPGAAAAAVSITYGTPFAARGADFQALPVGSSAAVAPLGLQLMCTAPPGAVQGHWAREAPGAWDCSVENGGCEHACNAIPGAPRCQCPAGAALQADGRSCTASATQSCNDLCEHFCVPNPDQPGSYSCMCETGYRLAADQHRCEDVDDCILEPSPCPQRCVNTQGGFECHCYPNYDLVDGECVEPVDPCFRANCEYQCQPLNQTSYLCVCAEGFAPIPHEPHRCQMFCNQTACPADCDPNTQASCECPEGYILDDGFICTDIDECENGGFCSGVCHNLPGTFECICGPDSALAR
Chain of pKCR-TM-Val-originated recombinant human urine thrombomodulin (receptor) (chain): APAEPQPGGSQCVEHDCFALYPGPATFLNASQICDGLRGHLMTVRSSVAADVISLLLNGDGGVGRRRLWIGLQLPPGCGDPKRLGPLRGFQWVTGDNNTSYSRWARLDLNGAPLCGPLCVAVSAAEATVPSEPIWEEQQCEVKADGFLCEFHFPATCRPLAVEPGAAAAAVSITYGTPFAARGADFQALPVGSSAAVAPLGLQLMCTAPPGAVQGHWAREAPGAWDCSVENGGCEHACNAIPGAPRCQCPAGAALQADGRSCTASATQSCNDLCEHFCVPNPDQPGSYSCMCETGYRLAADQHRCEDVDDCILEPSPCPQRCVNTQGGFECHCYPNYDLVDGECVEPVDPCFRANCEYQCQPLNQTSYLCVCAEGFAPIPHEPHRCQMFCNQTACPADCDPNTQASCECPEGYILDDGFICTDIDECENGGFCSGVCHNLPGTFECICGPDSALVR
Chain of mutation type recombinant human urine thrombomodulin in which 10 amino acid residues are deleted from the C-terminus of the human urine thrombomodulin (receptor) (chain): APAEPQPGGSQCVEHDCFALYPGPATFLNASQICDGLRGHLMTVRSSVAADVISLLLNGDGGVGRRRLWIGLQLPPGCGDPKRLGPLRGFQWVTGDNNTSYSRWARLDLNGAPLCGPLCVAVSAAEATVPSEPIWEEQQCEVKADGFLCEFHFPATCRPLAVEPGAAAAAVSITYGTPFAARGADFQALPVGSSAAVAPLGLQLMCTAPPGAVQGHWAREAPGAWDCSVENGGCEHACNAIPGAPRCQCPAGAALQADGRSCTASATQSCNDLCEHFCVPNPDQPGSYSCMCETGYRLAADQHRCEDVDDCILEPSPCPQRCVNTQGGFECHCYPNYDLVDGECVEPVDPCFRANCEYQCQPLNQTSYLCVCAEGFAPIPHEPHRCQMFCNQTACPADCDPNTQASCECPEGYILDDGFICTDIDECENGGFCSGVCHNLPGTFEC

| Substance | Protein C activating ability (relative activity) (bovine thrombin (bovine) [1]) | adsorbed by thrombin (DIP-thrombin agarose) | Coagulation time (bovine thrombin (bovine) [2]) | Coagulation time (human fibrinogen (human)) |
| --- | --- | --- | --- | --- |
| recombinant human urine thrombomodulin ruTM-Ala (receptor) | 3.8 | 100% | > 500 s |  |
| bovine thrombin (from UniProt P00735) (enzyme) |  |  |  | 37.8 s |
| human placenta thrombomodulin (from UniProt P07204) (receptor) | 1 |  |  |  |

The next lines start with the values.

| Protein C activating ability (relative activity) (bovine thrombin (bovine) [1]) | adsorbed by thrombin (DIP-thrombin agarose) | Coagulation time (bovine thrombin (bovine) [2]) | Coagulation time (human fibrinogen (human)) | Substance |
| --- | --- | --- | --- | --- |
| 4.1 |  |  |  | mutation type recombinant human urine thrombomodulin in which 10 amino acid residues are deleted from the C-terminus of the human urine thrombomodulin (receptor) |
|  | 100% | > 500 s |  | pKCR-TM-Val-originated recombinant human urine thrombomodulin (receptor) |

Source: patent US5695964
